Data as given in doi:10.64898/2025.12.18.695067.

Target: DNAJB1 (recombinant, as used in SPR) (human) (UniProt P25685)
Test: SPR

UniProt P25685, sequence (P25685 whole entry): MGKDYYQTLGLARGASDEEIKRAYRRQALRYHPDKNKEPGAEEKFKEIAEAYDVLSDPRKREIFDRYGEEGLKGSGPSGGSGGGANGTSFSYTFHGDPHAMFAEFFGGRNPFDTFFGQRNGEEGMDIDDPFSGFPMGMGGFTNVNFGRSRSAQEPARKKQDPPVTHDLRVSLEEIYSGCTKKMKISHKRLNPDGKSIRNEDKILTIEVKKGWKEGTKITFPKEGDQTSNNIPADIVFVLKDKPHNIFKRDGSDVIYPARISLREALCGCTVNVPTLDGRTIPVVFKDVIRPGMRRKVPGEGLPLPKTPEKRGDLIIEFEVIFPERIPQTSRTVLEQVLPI

Substance	Kd
K27-linked diubiquitin (chemically synthesized; tag not told for the experiment) (from UniProt P0CG48 1-76; P0CG48 1-76)	1830 nM
K27-linked tetraubiquitin (synthetic) (from UniProt P0CG48 1-76)	3420 nM
